The text below walks through data of PMC11527279, “The SARS-CoV-2 ORF6 protein inhibits nuclear export of mRNA and spliceosomal U snRNA” (PLOS ONE, 2024).

This assay concerns the target T1, GST-T7-ORF6-His (SARS-CoV-2, UniProt P0DTC6 1-61).
T1 construct: ORF6 protein of SARS-CoV-2, full-length recombinant protein; pGEX-T7-ORF6-His; T7 tag lies between GST and ORF6; also called GST-ORF6; not shown: GST, N-terminal, kept; T7, N-terminal, kept; His6, C-terminal, kept
T1 sequence: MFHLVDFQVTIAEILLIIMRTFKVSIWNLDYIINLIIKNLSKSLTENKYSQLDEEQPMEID
The settings on record: both partners purified.

B1: T7-ORF6-His (natural protein)
chain: T1 sequence
notes: ORF6 protein of SARS-CoV-2, full-length recombinant protein; From pGEX-T7-ORF6-His (pGEX-6p-1 backbone); also called SARS-CoV-2 ORF6 protein; not shown: GST, N-terminal, cleaved; T7, N-terminal, kept; His6, C-terminal, kept
Take B1: the binding result is listed as “binds”.
